Experimental findings from patent US20240101673A1 (MOZART THERAPEUTICS, published 2024) are described below.

The target in test [1] is CD8 (Homo sapiens). In words: titration on CD8+ T cells, gMFI (flow cytometry). Background: A flow cytometer gives signals particle by particle.
In test [2] the target is CD8 (Homo sapiens). Put plainly: titration on the CXCR3 CD39 CD8 T cell subset, gMFI (flow cytometry).
In test [3] the target is T1, KIR2DL1 tagged with a hexahistidine peptide (UniProt P43626 22-245, limits assumed).
T1 construct: Soluble analyte in the Octet assays; also called KIRDL1; not shown: hexahistidine tag (HHHHHH)
Put plainly: BLI (Octet), CrossMAb captured on AHC anti-human Fc biosensors, analyte 6.25-200 nM. Background: In BLI a coated tip is dipped into the sample, and binding shifts an interference pattern.

The target in test [4] is T2, KIR2DL3 tagged with a hexahistidine peptide (UniProt P43628 22-245, limits assumed).
T2 construct: Soluble analyte in the Octet assays; not shown: hexahistidine tag (HHHHHH)
The test is described as above.

Test [5] deals with T3, CD8alpha tagged with a hexahistidine peptide (UniProt P01732 22-182, limits assumed).
T3 construct: Soluble analyte in the Octet assays; not shown: hexahistidine tag (HHHHHH)
Described as above.

Test [6] has as its target T3, CD8alpha tagged with a hexahistidine …. Put plainly: BLI (Octet), antibody captured on AHC anti-human Fc biosensors, analyte 6.25-200 nM. The procedure: The affinities of the parental antibodies anti-KIR2DL1/L2/L3 IPH2102 IgG1 r mAb and anti-CD8alpha Mb1 b IgG1r mAb were also analyzed. For kinetic analysis, the parental antibodies were separately captured to AHC (anti-human Fc) biosensors using a load concentration of 1.25 ug/ml. For IPH2102 IgG1r mAb, the KIR2DL1, or KIR2DL3 analytes ranged from 6.25 nM to 200 nM. Analyte binding following capture was analyzed first for association of KIR2DL1 or KIR2DL3 followed by the dissociation of each analyte independently. Likewise, for the Mb1b IgG1r mAb, the CD8alpha analyte ranged from 6.25 nM to 200 nM. Analyte binding following capture was analyzed first for association followed by the dissociation of CD8alpha.

T3 sequence (P01732 22-182 limits assumed): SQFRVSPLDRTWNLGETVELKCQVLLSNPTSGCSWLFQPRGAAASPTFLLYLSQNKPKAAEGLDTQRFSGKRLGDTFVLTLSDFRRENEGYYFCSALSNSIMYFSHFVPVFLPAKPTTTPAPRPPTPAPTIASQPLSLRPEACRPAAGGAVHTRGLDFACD
Sequence of CD8 (Homo sapiens) (chain, as listed by the source): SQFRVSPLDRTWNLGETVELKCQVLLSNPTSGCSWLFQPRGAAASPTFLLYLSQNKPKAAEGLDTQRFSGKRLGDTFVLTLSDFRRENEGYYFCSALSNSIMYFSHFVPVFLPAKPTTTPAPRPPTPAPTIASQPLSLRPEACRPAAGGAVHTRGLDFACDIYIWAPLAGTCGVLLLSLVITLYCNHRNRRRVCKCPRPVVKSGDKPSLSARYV
T1 sequence (P43626 22-245 limits assumed): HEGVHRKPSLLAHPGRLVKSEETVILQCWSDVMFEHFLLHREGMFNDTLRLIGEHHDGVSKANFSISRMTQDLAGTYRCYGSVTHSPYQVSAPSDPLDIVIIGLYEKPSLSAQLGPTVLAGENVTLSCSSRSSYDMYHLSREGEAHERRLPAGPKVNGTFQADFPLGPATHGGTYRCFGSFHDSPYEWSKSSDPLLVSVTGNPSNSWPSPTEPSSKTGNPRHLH
T2 sequence (P43628 22-245 limits assumed): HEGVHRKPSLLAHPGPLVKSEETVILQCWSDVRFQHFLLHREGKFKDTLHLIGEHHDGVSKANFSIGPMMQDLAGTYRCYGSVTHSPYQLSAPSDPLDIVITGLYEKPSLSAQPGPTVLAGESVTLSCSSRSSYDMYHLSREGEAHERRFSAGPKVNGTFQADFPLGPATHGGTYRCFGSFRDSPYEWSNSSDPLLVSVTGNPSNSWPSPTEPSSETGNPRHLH

B1: KIR2DLxCD8 bispecific (bispecific antibody)
chain 1: QVQLVQSGAEVKKPGSSVKVSCKASGGTFSFYAISWVRQAPGQGLEWMGGFIPIFGAANYAQKFQGRVTITADESTSTAYMELSSLRSDDTAVYYCARIPSGSYYYDYDMDVWGQGTTVTVSS
chain 2: EIVLTQSPVTLSLSPGERATLSCRASQSVSSYLAWYQQKPGQAPRLLIYDASNRATGIPARFSGSGSGTDFTLTISSLEPEDFAVYYCQQRSNWMYTFGQGTKLEIK
chain 3: EVQLVESGGGLVQPGGSLRLSCAASGFNIKDTYIHFVRQAPGKGLEWIGRIDPANDNTLYASKFQGKATISADTSKNTAYLQMNSLRAEDTAVYYCGRGYGYYVFDHWGQGTLVTVSS
chain 4: DVQITQSPSSLSASVGDRVTITCRTSRSISQYLAWYQQKPGKVPKLLIYSGSTLQSGVPSRFSGSGSGTDFTLTISSLQPEDVATYYCQQHNENPLTFGGGTKVEIK
The term EC50 (read off the curve) denotes the concentration that produces a half-maximal response. A high value points to a need for much substance. Consider B1, for which the figures for the “EC50 (read off the curve)” value with CD8 [1] and in the test with CD8 [2] were approximately 40 nM and approximately 100 nM, respectively.

B2: IPH2102/Mb1b CrossMAb (bispecific antibody)
chain 1: B1 chain 1
chain 2: B1 chain 2
chain 3: B1 chain 3
chain 4: B1 chain 4
The Kd is the equilibrium constant for the complex coming apart. Read a low Kd as tighter binding. Turning to B2, the Kd amounted to 1.52 nM in test [3], 0.88 nM in test [4] and 2.07 nM in test [5].

B3: Mb1b IgG1 r mAb (antibody, V domains shown)
VH: B1 chain 3
VL: B1 chain 4
notes: also called Mb1b parental antibody; anti-CD8alpha Mb1 b IgG1r mAb
As for B3, the Kd in test [6] amounted to 2.6 nM.
